How the values were obtained:
rats = assay: Ultrasonically enhanced transdermal insulin delivery in live rats, blood glucose levels; type: in vivo, rat
Source text: A four-element transducer was fabricated using four standard cymbal element transducers in one array system (Array #1) and four stacked cymbal element transducers in another system (Array #2). Array #1, the standard array, was set to operate at 20 k Hz frequency and at 125 mW/sq. cm intensity level. Array #2, the stacked array, was set to operate at 20 k Hz frequency and at 225 mW/sq. cm intensity level.
The transducer's arrays were fitted with a reservoir at the bottom end, into which Humulin Regular Insulin (supplied by Eli Lilly Company) was inserted. A total of […] of insulin was added, providing 100 units of insulin for the each test.
Two groups of test rates were assembled. The first group (Group-1) would receive the ultrasonic transmission while the second group would receive no ultrasound. In the second group (Group-2) the transducers arrays were loaded with insulin and the insulin was allowed to pool onto the surface of the rat skin, but there was no active ultrasonic transmission.
Next a frequency generator was employed to propagate the pulsed ultrasonic transmission, which used 100 millisecond pulses, with a pulse rate of one pulse per second, a duty cycle of 10%, for one hour.
Both Group-1 and Group-2 animals were tested for 120 minutes. Blood samples were taken from the animals according to standard investigative procedure every 30 minutes for the first hour and every hour after and analyzed for glucose levels and the presence of insulin. The Group-1 animals were exposed to ultrasound for 60 minutes, after which the ultrasound was terminated for the balance of the test period. Glucose levels in both groups were observed over the 120 minute period.

rat skin = details: rats, after ultrasonic transdermal insulin delivery with transducer array
Source text: The belly of the rats were shaved to produce a skin area as close in configuration as would be present in the human situation. The transducer arrays were placed directly onto the rat skin surface and adhered to the skin by means of an adhesive.
A section of the skin where the transducer was placed is marked on the skin.

[1] = Drug survivability after ultrasonic exposure (HPLC analysis of insulin); type: physicochemical
Source text: Since the transducers of this invention are designed primarily for application in a drug delivery system the Applicant deemed it necessary to test the effect of the ultrasonic signal upon an active pharmaceutical substance. High intensity and high frequency ultrasound is theorized to be capable of inducing a cavitation effect within a drug, leading to an increase in temperature and a degradation of the drug molecule. For the following experiment Insulin (Humulin Regular-supplied by the Eli Lilly Company) was subjected to ultrasound emitted from a stacked array of the transducers of this invention, set to operate at 20 k Hz frequency and at 125 mW/sq. cm intensity level, for one, eight and eleven continuous hours of exposure. The insulin was placed in a plastic pouch within a hydrophone tank containing water and stirred during ultrasonic exposure. A control sample, which was untreated, but allowed to sit in the pouch and tank for one, eight and eleven hours, was also made. Samples were sent to Celsis Laboratories for independent analysis.

In the case of Insulin [Humulin Regular], the glucose level (rats; Group-1 rats, insulin on skin with active ultrasound (20 k Hz), minute 30 and minute 60) is reported as “significant reduction”, the “glucose level after termination of the ultrasound” value (rats; Group-1 rats, minute 60 to 120, ultrasound terminated at minute 60) is reported as “rise” and the glucose level (rats; Group-2 rats, insulin on skin, no ultrasound, minute 30 and minute 60) is reported as “no lowering”. The glucose level (rats; Group-2 rats, no ultrasound, minute 60 to 120) was “no decrease”, the “permeation through the skin” value (rats; insulin placed on the skin or delivered via transdermal patch, without ultrasound) was “will not permeate” and the “skin damage at test area” value (rat skin) was “no skin damage”. The “degradation of insulin or excipient solution (HPLC scan)” value ([1]; control sample, no ultrasound, left in pouch and tank) was “no degradation”, the “degradation of insulin or excipient solution (HPLC scan)” value ([1]; ultrasonically treated sample, eight hours of continuous exposure, 20 k Hz, 125 mW/sq. cm) was “no degradation” and the “change in the insulin versus untreated insulin (independent analysis)” value ([1]; ultrasound from stacked array, 20 k Hz, 125 mW/sq. cm, one, eight and eleven continuous hours) was “no change”.

— US20180325836A1, “ULTRASONIC TRANSDUCERS SUITABLE FOR ULTRASONIC DRUG DELIVERY VIA A SYSTEM, WHICH IS PORTABLE AND WEARABLE BY THE PATIENT” (BKR IP Holdco LLC, priority 2015, published 2018)
